Seven molecules from patent US20230358742A1 (MIT, published 2023) can be followed below.

The labels stand for the following.
B1: rcSso7d.LSP.3 (yeast-surface displayed) (designed binder)
chain: MATVKFTYQGEEKQVDISKIKIAKRYGQIIDFSYDEGGGARGWGIVSEKDAPKELLQMLEKQ
notes: also called clone 3; Clone 3
B2: rcSso7d.LSP.4 (designed binder)
chain: MATVKFTYQGEEKQVDISKIKDVGRYGQRICFWL
notes: also called clone 4; Clone 4
B3: rcSso7d.LSP.2 (designed binder)
chain: MATVKFTYQGEEKQVDISKIKDVGRHGQKICFLL
notes: also called clone 2; Clone 2
B4: rcSso7d.LSP.5 (designed binder)
chain: MATVKFTYQGEEKQVDISKIKWVRRAGQWIDFAYDEGGGAKGYGIVSEKDAPKELLQCWKS
notes: also called clone 5; Clone 5
B5: rcSso7d.LSP.7 (designed binder)
chain: MATVKFTYQGEEKQVDISKIKIAVYRYGQYIYFSYDEGGGASGIGKVSEKDAPKELLQMLEKQ
notes: also called clone 7; Clone 7
B6: rcSso7d.LSP.6 (designed binder)
chain: MATVKFTYQGEEKQVDISKIKDVGRHGQHICFWL
notes: also called clone 6; Clone 6
B7: rcSso7d.LSP.1 (designed binder)
chain: MATVKFTYQGEEKQVDISKIKDVGRSGQNICFYL
notes: also called clone 1; Clone 1

One assay has as its target T1, His-LSP (LMOf2365_0639, Listeria monocytogenes surface protein, with N-terminal 6x-histidine tag) (Listeria monocytogenes).
T1 construct: also called Listeria surface protein
T1 chain: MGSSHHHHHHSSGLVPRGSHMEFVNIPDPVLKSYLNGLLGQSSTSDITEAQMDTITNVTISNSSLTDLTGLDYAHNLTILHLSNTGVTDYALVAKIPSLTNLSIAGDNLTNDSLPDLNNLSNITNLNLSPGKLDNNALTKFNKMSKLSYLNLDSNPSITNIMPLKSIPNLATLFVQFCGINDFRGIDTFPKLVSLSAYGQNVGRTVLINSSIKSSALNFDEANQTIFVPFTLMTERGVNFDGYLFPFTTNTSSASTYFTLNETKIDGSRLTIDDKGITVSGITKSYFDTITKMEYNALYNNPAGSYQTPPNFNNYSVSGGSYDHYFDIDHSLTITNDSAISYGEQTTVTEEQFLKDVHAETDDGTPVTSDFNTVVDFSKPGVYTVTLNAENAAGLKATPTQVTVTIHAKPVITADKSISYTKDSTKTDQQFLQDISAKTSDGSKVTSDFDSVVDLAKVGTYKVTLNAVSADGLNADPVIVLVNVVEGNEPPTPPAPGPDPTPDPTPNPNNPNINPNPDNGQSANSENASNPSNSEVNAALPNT
As to the kind of experiment: FACS histograms, clonal yeast-surface display, 20 nM of LSP (FIG. 3B).
For the molecule B1, the binding result is “binds”.
Turning to B2, the binding result was “binds”.
Consider B3, for which the binding result was “binds”.

Another assay concerns the target T1, His-LSP (LMOf2365_0639, Listeria …). Nature of the assay: flow cytometry, clonal yeast-surface display, 20 nM His-LSP.
As to B4, the binding result is on record as “binds”.
Still for that read-out and setting: then B5, with “binds”; and B6, with “binds”; and B7, with “binds”.
